Experimental data reported in patent publication US11827911B2, “Chimeric bacteriophage lysin with activity against Staphylococci bacteria” (priority 2008, dated 2023).

How the values were obtained:
MRSA strain COL = assay: Checkerboard broth-microdilution assay; type: cell-based, Staphylococcus aureus
Excerpt: (§1) We used the checkerboard broth-microdilution assay to test the interaction of ClyS with vancomycin and with oxacillin. […] Isobolograms for ClyS with vancomycin and ClyS with oxacillin was plotted by transcribing the enzyme concentrations along the inhibitory line on the microtiter plate in an x/y plot.

VISA strain Mu50 = assay: Checkerboard broth-microdilution assay; type: cell-based, Staphylococcus aureus; conditions: VISA strain Mu50
Excerpt: as §1

S. aureus = assay: Lytic assays of chimeric lysins against S. aureus; type: cell-based, Staphylococcus aureus; conditions: for lytic/killing activity against S. aureus: qualitative
Excerpt: For this, the endopeptidase domain in Twort lysin (14) was used to construct chimera AD 119 (SEQ ID NO:3). […] To overcome low expression of AD 127 construct, the entire chimera gene was cloned into expression vector pJML6 to generate pAD 138.

S. aureus 8325-4 cells = assay: Transmission electron microscopy of the lytic effect; type: cell-based, Staphylococcus aureus; conditions: 50 U of ClyS for 1-3 min
Method: However, unlike other lysins, the sites of degradation on the cell was not restricted to the septal or polar positions but was randomly distributed.
S. aureus strain 8325-4 was grown to log-phase, centrifuged and resuspended in PBS to an absorbance at 600 nm of 1.0. The bacterial suspension was incubated with 50 U of ClyS at room temperature. […] The suspension was pelleted by centrifugation and overlaid with 2.5% glutaraldehyde in 0.1 M cacodylate buffer (pH 7.4). The samples were then postfixed in 1% osmium tetroxide, block stained with uranyl acetate and processed according to standard procedures by The Rockefeller University Electron Microscopy Service.

MRSA (191-SM^R) = assay: In vivo nasal decolonization of MRSA; set-up: species or system C57BL/6J mice; conditions: three hourly intranasal doses of ClyS (960 μg) 24 h post-infection; 1 h after last treatment; p<0.001 vs buffer
Excerpt: Carriage of both MSSA and MRSA in the human anterior nares is the major reservoir for S. aureus infection. Studies have shown that roughly 80% of the population could be nasally colonized by S. aureus, and that colonization can be an increased risk factor for developing other more serious S. aureus infections (Kluytmans, J., A. van Belkum. 1997. Nasal carriage of Staphylococcus aureus: epidemiology, underlying mechanisms, and associated risks. Clin Microbiol Rev 10(3): 505-20). Elimination of nasal carriage in the community or in the hospital setting thus could possibly reduce the risk of infection and slow the spread of drug resistant S. aureus (Kluytmans et al. (1997)). To study the potential of ClyS to reduce MRSA colonization of the nasal mucosa, C57BL/6J mice were intranasally inoculated with ˜2×10^7 of a spontaneously streptomycin resistant strain of MRSA (191-SM^R). Twenty-four hours post-infection mice were administered three doses hourly of either phosphate buffered saline (control) or ClyS (960 μg) into the nasal passages. One hour after the last treatment, mice were sacrificed and bacteria colonies were enumerated on Spectra MRSA agar, (a selective chromogenic medium developed to diagnostically detect MRSA nasal colonization) and Columbia blood agar. […]

MRSA strain MW2 = assay: Systemic MRSA infection model, survival; type: in vivo, FVB/NJ mice
Method: In order to assess whether ClyS treatment could prevent death resulting from systemic MRSA infections, 4 week old FVB/NJ mice were intraperitoneally injected with ˜5×10^5 CFU of the community-acquired MRSA strain MW2 in 5% mucin. Preliminary experiments determined that 5×10^5 CFU was 10× the LD100 dose for a twenty-four hour period. Furthermore, within 3 hours of IP injection the MRSA infection was systemic. i.e., MRSA were recovered in high numbers from heart, liver, spleen, and kidney (data not shown). Treatment occurred three hours post-infection, with either 20 mM phosphate buffer or 1 mg of ClyS in 20 mM phosphate buffer injected IP (intraperitoneally). Mice were then monitored for survival over ten days. The results from three independent experiments were combined (ClyS treatment, n=16; buffer treatment, n=14) and the mice survival data plotted with a Kaplan Meier Survival curve (FIG. 12), Within twenty-four hours all of the control mice died of bacterial sepsis, while only 2/16 of ClyS treated mice died at forty-eight hours, and the remaining mice (14/16, 88%) survived over the course of the experiments (FIG. 12).
To determine if this effect could be seen in our systemic MRSA infection model, FVB/NJ mice were intraperitoneally injected with ˜5×10^5 CFUs of the MRSA strain MW2 as above. Three hours post infection mice were treated in parallel, with a lower IP dose of 130 μg/mouse of ClyS combined with different concentrations of oxacillin (10-100 μg/mouse) or buffer alone controls. Preliminary experiments determined that an ED30 dose of ClyS (130 μg/mouse) had minimal efficacy to evaluate the effect of combinatorial treatment with oxacillin (data not shown). Mice were monitored for survival for 10 days and the results of 5 independent experiments were combined and plotted in a Kaplan Meier Survival curve (FIG. 14).

S. sciuri = assay: Muralytic activity on bacterial strains, Set II; type: cell-based; conditions: 50 U of ClyS, 15 minutes
Method: (§2) Muralytic activity of ClyS was tested on a number of bacterial strains representing a variety of species which were divided into sets (Table 1 and FIG. 10). Set I consisted of S. aureus strains including methicillin-sensitive S. aureus (MSSA) and MRSA. ClyS was active against MSSA and MRSA although differences were observed between S. aureus strains. Set II consisted of different species of staphylococci including S. epidermidis, S. simulans and S. sciuri. […] Set III consisted of a mix of Gram-positive and Gram-negative bacteria including representatives of group A, B, C and E streptococci, oral streptococcal species including S. gordonli, and S. salivarius, as well as S. uberis, Bacillus cereus, Pseudomonas aeruginosa and E. coli.
(§3) The viability assay of ClyS was tested as previously described (Nelson et al, 2001). Briefly, log phase cultures of S. aureus strain 8325-4 were resuspended in PB to OD600 of 0.8-1.0. 50 U of ClyS or the corresponding volume of PB was added to bacterial cells and aliquots were removed, serially diluted, and plated at 1, 5, 10, 30, and 60 minutes to assess the viability of the treated and control cells. All experiments were performed in triplicate. The activity of ClyS on various bacterial strains was tested as described previously (Schuch et al, 2002). Briefly, log phase bacterial cells were treated with 50 U of ClyS at 37° C. for 15 minutes. The samples were serially diluted and plated. Control experiments with the addition of phosphate buffer (pH 7.0) were performed under the same conditions.

[1] = system: S. epidermidis including the biofilm-forming strain RP62A; assay: Muralytic activity on bacterial strains, Set II; type: cell-based; conditions: 50 U of ClyS, 15 minutes
Method: as §2, §3

S. simulans = assay: Muralytic activity on bacterial strains, Set II; type: cell-based; conditions: 50 U of ClyS, 15 minutes
Method: as §2, §3

B1: ClyS: chimeric lysin: Twort lysin endopeptidase domain attached to the phiNM3 CWT domain, 280 amino acid residues (protein)
chain: METLKQAESYIKSKVNTGTDFDGLYGYQCMDLAVDYIYHVTDGKIRMWGNAKDAINNSFGGTATVYKNYPAFRPKYGDVVVWTTGNFATYGHIAIVTNPDPYGDLQYVTVLEQNWNGNGIYKTELATIRTHDYTGITHFIRPNFATESSVKKKDTKKKPKPSNRDGLNKDKIVYDRTNINYNMVLQGKSASKITVGSKAPYNLKWSKGAYFNAKIDGLGATSATRYGDNRTNYRFDVGQAVYAPGTLIYVFEIIDGWCRIYWNNHNEWIWHERLIVKEVF
modifications: Chimeric of Staphylococcus aureus bacteriophage Twort domain and Staphylococcus aureus phage phiNM3 CWT domain
notes: chimeric lysin: Twort lysin endopeptidase domain attached to the phiNM3 CWT domain, 280 amino acid residues
MIC (MRSA strain COL): 8 U/ml | MIC (VISA strain Mu50): 6 U/ml | activity (S. aureus; AD 127 from the pAD138 construct): very high | lytic/killing activity against S. aureus (S. aureus; listed as AD 127): very high activity | lytic/killing activity against S. aureus (S. aureus; listed as AD127): little or no killing activity | lytic effect seen by transmission electron microscopy (S. aureus 8325-4 cells): localized degradation of the cell wall | mean CFU on the nasal mucosa (MRSA (191-SM^R)): 1198 CFU/cavity | survival (MRSA strain MW2; 130 μg/mouse of ClyS IP alone, 10 days): 30% | mice died at forty-eight hours (MRSA strain MW2; 1 mg of ClyS IP three hours post-infection): 2/16 | survival over the course of the experiments (MRSA strain MW2; 1 mg of ClyS IP three hours post-infection, ten days): 88% | ED30 dose (MRSA strain MW2; IP, preliminary experiments): 130 μg/mouse | muralytic activity against S. sciuri (S. sciuri): active | muralytic activity against S. epidermidis [1]: active | muralytic activity against S. simulans (S. simulans): active
